Publication PMC3601739 (Chemical communications (Cambridge, England), 2013)

Tests used:
HIV-1 RRE IIB RNA [1] = assay: Dot blot assay, 32P-labeled RRE IIB titrated with BPBAs; type: binding; conditions: read-out: Kd (dissociation constant), 32P-labeled RRE IIB titrated with increasing concentration of peptide, average of at least three experiments
HIV-1 RRE IIB RNA [2] = assay: Electrophoretic mobility shift assay; type: binding; conditions: read-out: Kd (dissociation constant) determined through EMSA; EMSA with RRE IIB
BPBA1 (synthetic) [3] = assay: EMSA; conditions: not stated in the material (details in ESI)
BPBA2 (synthetic) [4] = assay: EMSA; conditions: not stated in the material (details in ESI)
BPBA3 (synthetic) [5] = assay: EMSA; conditions: not stated in the material (details in ESI)
BPBA1 (synthetic) [6] = assay: dot blot; conditions: not stated in the material (details in ESI)
BPBA1.2 (synthetic) = assay: dot blot; conditions: not stated in the material (details in ESI)
BPBA2 (synthetic) [7] = assay: dot blot; conditions: not stated in the material (details in ESI)
BPBA3 (synthetic) [8] = assay: dot blot; conditions: not stated in the material (details in ESI)
BPBA4 (synthetic) = assay: dot blot; conditions: not stated in the material (details in ESI)
BPBA5 (synthetic) = assay: dot blot; conditions: not stated in the material (details in ESI)
BPBA6 (synthetic) = assay: dot blot; conditions: not stated in the material (details in ESI)
BPBA7 (synthetic) = assay: dot blot; conditions: not stated in the material (details in ESI)
BPBA8 (synthetic) = assay: dot blot; conditions: not stated in the material (details in ESI)

For (FBPAYFBPA)2 * NKSY [BPBA3], the Kd (HIV-1 RRE IIB RNA [1]) was 8.7 ± 2.3 µM and the Kd (HIV-1 RRE IIB RNA [2]) was 4.6 ± 2.4 µM.

Work on (KBBAKFBPA)2 * KBBAKKY [BPBA2] yielded a Kd (HIV-1 RRE IIB RNA [1]) of 3.3 ± 1.2 µM.

(KBBAYK)2 * HKKY [BPBA8] showed a Kd (HIV-1 RRE IIB RNA [1]) of 86.5 ± 10 µM.

(KKBBAF)2 * KKWY [BPBA5] showed a Kd (HIV-1 RRE IIB RNA [1]) of 27.2 ± 6.9 µM.

With (KKBBAK)2 * KLKY [BPBA7] the Kd (HIV-1 RRE IIB RNA [1]) was 58.4 ± 4 µM.

(KKKBBA)2 * FBPATSY [BPBA4] gave a Kd (HIV-1 RRE IIB RNA [1]) of 26.8 ± 4.4 µM.

For (WKK)2 * KBBAYWY [BPBA1], the Kd (HIV-1 RRE IIB RNA [1]) was 1.4 ± 0.4 µM.

HIV-1 RRE IIB RNA gave a Kd (BPBA1 (synthetic) [3]) of 0.3 µM, a Kd (BPBA2 (synthetic) [4]) of 0.6 µM and a Kd (BPBA3 (synthetic) [5]) of 4.6 µM. For the same substance, the Kd (BPBA1 (synthetic) [6]) was 1.4 µM, the Kd (BPBA1.2 (synthetic)) was 0.8 µM and the Kd (BPBA2 (synthetic) [7]) was 3.3 µM. For the same substance, the Kd (BPBA3 (synthetic) [8]) was 8.7 µM, the Kd (BPBA4 (synthetic)) was 26.8 µM and the Kd (BPBA5 (synthetic)) was 27.2 µM. For the same substance, the Kd (BPBA6 (synthetic)) was 28.5 µM, the Kd (BPBA7 (synthetic)) was 58.4 µM and the Kd (BPBA8 (synthetic)) was 86.5 µM.
